The source of these data is paper PMC4428071, “Structural basis for epitope masking and strain specificity of a conserved epitope in an intrinsically disordered malaria vaccine candidate” (Scientific Reports, 2015).

A value given as a limit tells only on which side of the number the result lay.

For the first assay, the target named is 6D8 scFv (mouse). Description: ITC; Microcal ITC-200; MSP2 or peptide titrated into 6D8 scFv or 6D8 IgG. (Isothermal titration calorimetry measures the heat released or taken up as one component is titrated into another.)
Sequence of 6D8 scFv (mouse) (heavy, as listed by the source, chain 1 of 2): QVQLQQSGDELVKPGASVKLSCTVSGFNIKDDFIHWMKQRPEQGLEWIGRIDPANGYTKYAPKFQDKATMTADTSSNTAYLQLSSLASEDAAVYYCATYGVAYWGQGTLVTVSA
Sequence of 6D8 scFv (mouse) (light, as listed by the source, chain 2 of 2): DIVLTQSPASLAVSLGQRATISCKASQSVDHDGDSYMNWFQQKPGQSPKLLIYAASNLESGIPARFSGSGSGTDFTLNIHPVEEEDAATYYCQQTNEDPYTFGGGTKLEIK
In general, Kd refers to the free concentration of one partner at which half of the binding sites on the other are occupied at equilibrium, for simple one-to-one binding. Low readings indicate tighter binding, high ones weaker binding. Turning to Ac-NAYNMSIRR-NH2 [MSP2_(14-22)], the Kd is < 5 nM.

The target of a further assay is mouse monoclonal antibody 6D8 (mouse). Description: SPR. (In SPR one partner is held on a chip, and binding of the other changes the refractive index at the surface.)
Sequence of mouse monoclonal antibody 6D8 (mouse) (heavy, as listed by the source, chain 1 of 2): as the sequence (heavy, as listed by the source, chain 1 of 2) above
Sequence of mouse monoclonal antibody 6D8 (mouse) (light, as listed by the source, chain 2 of 2): as the sequence (light, as listed by the source, chain 2 of 2) above
Regarding Ac-AYNMSIRRS-NH2 [MSP2_(15-23)], the Kd turned out to be 34 nM.
Turning to Ac-AYNMSIRR-NH2 [MSP2_(15-22)], the Kd was 87 nM.
Ac-NAYNMSIRR-NH2 [MSP2_(14-22)] gave a Kd of 6 nM.
Same read-out and setting: next, Ac-FINNAYNMSIRRS-NH2 [MSP2_(11-23)]: 6 nM.
For Ac-NAYNMSIRRS-NH2 [MSP2_(14-23)], the Kd worked out at 16 nM.
Regarding Ac-NNAYNMSIRR-NH2 [MSP2_(13-22)], the Kd came to 14 nM.
